The values below come from patent US20220056133A1.

Broadly, the Kd is the concentration at which binding is half-saturated. Read a low Kd as higher affinity. As a reminder, the koff is the first-order rate constant of dissociation. Usually kon stands for the rate constant with which the complex forms. Read a high kon as fast association.

For assay [1], the target named is TRBV9 family TCR on human peripheral blood T lymphocytes (human). Put plainly: cell-based or functional assay.
Assay [2] shares this target.
The target is the same in assay [3]. Put plainly: flow cytometry sorting of human peripheral blood mononuclear cells stained with MA-042-FITC, CD3-eFluor405 and CD45-PC5 at 100 ng/ml; dot plot of MA-042 against CD3.
For assay [4] the target is unchanged. Put plainly: FACS sorting with MA-042-FITC, then sequencing of the TCR beta-chain repertoire of the sorted cells.
The target in assay [5] is human antigen (immobilised on AR2G sensors in the Octet assay of Example 2) (human). Nature of the assay: BLI (OctetRed 96), antigen immobilised on AR2G sensors, antibody in solution, 1:1 global model, 30 C.

Some results are limits rather than exact numbers.

B1: antibody MA-042 (antibody, human IgG1, kappa, V domains shown)
VH: QVQLVQSGSELKKPGESVKVSCKASGYTFTDYLVHWVRQAPGQGLEWMGWINTYTGTPTYADDFEGRFVFSLDTSVSTANLQISSLKAEDTAVYFCARSWRRGLRGIGFDYWGQGTLVTVSS
VL: DIQMTQSPYSLSASVGDRVTITCKASKSINKYLAWFQQKPGKPNKLLIYDGSTLQSGVPSRFSGSGSGTDFTLTISSLEPEDFATYYCQQHNEYPPTFGQGTKLEIKR
Take B1: in assay [1], the EC50 in a cytotoxicity assay (elimination of TRBV9-positive cells among CD3+ lymphocytes, flow cytometry after 72 hours) came to 100 ng/mL and the antibody concentration at which complete elimination of the target population was detected is 500 ng/mL. In assay [2], this molecule registered a share of CD3+ cells in the TRBV9+ (MA-042-FITC positive) gate after the cytotoxicity assay with 1 ng/ml MA-042 (right panel) of 2% and a share of CD3+ cells in the TRBV9+ (MA-042-FITC positive) gate after the cytotoxicity assay with 1 ug/ml MA-042 (left panel) of 0.3%. This molecule also gave an MA-042+ (share of cells in the MA-042+ gate) in assay [3] of 1.9%. The molecule further registered an enrichment of the sorted fraction's TCR beta-chain libraries with TRBV9-encoded sequences in assay [4] of 93%. Further, in assay [5], the Kd is less than 1 pM, the koff was less than 1e-07 s⁻¹ and the kon stood at 319000 M⁻¹ s⁻¹.
